Laboratory results reported in patent US20160251695.
Substitutions are numbered along the chain they refer to.

B1: CFP-T7-H2-62N (protein)
chain: MTSNRADTRVIVVGGGGTIGSSTALHLVRSGYAPANITVLDTFEIPSAQSAGHDLNKIMGINLRNKVDLQMSLEARQMWKEDELFQPFFHNTGRMDCEHTPEGIEDLKKLYQALHDAGAGLEKTHAWLDNEDEILSKMPLLQRDQIQGWKAIWSQDGGWLAAAKAINAIGQFLKERGVKFGFGGAGSFKQPLFDDEGTTCIGVETADGTKYYADKVVLAAGAWSPTLVDLEDQCCSKAWVYAHIQLTPEEAAEYKGVPVVYNGEFGFFFEPDEFGVIKVCDEFPGFSRFKEHQPYGAPSPKRISVPRSHAKHPTDTYPDASEVSIKKAIATFLPRFQDKELFNRALCWCTDTADAALLMCEHPKWKNFILATGDSGHSFKILPNVGKYVVELIEGRLPEEMAYQWRWRPGGDALKSRRAAPPKDLADMPGWKHDPKL
B2: CFP-T7-H27 (protein)
chain: B1 chain with N62D, L63K, D106K, A113K
B3: CFP-T7-H36 (protein)
chain: B1 chain with N62D, L63H, D68N, E102K, D106K, A113K, A355S
B4: CFP-T7-H6 (protein)
chain: B1 chain with N62D
B5: CFP-T7-H29 (protein)
chain: B1 chain with N62D, L63H, D106K, A113K, A419K
B6: CFP-T7-H26 (protein)
chain: B1 chain with N62D, L63H, D106K, A113K
B7: CFP-T7-H10 (protein)
chain: B1 chain with N62D, D106A
B8: CFP-T7-H28 (protein)
chain: B1 chain with N62D, L63H, E102K, D106K, A113K
B9: CFP-T7-H2-62Q (protein)
chain: B1 chain with N62Q
B10: CFP-T7-H2-62E (protein)
chain: B1 chain with N62E
B11: CFP-T7-H2 (protein)
chain: B1 chain with N62A
B12: CFP-T7-H25 (protein)
chain: B1 chain with N62D, L63D, D106K, A113K
B13: CFP-T7-H8 (protein)
chain: B1 chain with N62D, R64E
B14: CFP-T7-H11 (protein)
chain: B1 chain with N62D, D106K
B15: CFP-T7-H14 (protein)
chain: B1 chain with N62D, A113R
B16: CFP-T7-H9 (protein)
chain: B1 chain with N62D, R64H
B17: CFP-T7-H7 (protein)
chain: B1 chain with N62D, R64A
B18: CFP-T7-H24 (protein)
chain: B1 chain with N62D, L63A, D106K, A113K
B19: CFP-T7-H13 (protein)
chain: B1 chain with N62D, A113K
B20: CFP-T7-H37 (protein)
chain: B1 chain with N62D, L63H, D68N, E102K, D106K, A113K, A355S, A356T
B21: CFP-T7-H12 (protein)
chain: B1 chain with N62D, D106R
B22: fructosyl peptide oxidase derived from Phaeosphaeria nodorum (protein)
chain: MAPSRANTSVIVVGGGGTIGSSTALHLVRSGYTPSNVTVLDAYPIPSSQSAGNDLNKIMGVSLRNPVDLQLALEARQMWNEDELFKKFFHNTGRLDCAHGEKDIADLKSGYQALVDAGLDATNEWLDSEDEILKRMPLLSRDQIKGWKAIFSKDGGWLAAAKAINAVGEYLRDQGVRFGFYGAGSFKAPLLAEGVCIGVETVDGTRYYADKVVLAAGAWSPTLVELHEQCVSKAWVYGHIQLTPEEAARYKNSPVVYNGDVGFFFEPNEHGVIKVCDEFPGFTRFKMHQPFGAKAPKRISVPRSHAKHPTDTIPDASDVSIRRAIATFMPQFKNKKMFNQAMCWCTDTADAALLICEHPEWKNFVLATGDSGHSFKLLPNIGKHVVELLEGTLADDLAHAWRWRPGSGDALKSRRSAPAKDLADMPGWNHDKPRANL
B23: fructosyl amino acid oxidase derived from Aspergillus oryzae RIB40 (protein)
chain: MTVTKSSSILIIGAGTWGASTALHLGRRGYTNVTVLDPYTVPSAISAGNDVNKIISSGQYSNKKDEIEVNEILAEEAFKGWTTDPLFKPYYHDTGVVMSACSSAGLDRLGIRVRPEEEPDVSEVTKPEHFRQLAPAVLKGNFPGWRGYHIRSNAGWAHARNALVAAIREAEKLGVKFVTGTQGRVITLIFENNDVKGAVTADGKIWRAEQTVLCAGANAAQFLDFKDQLRPTAWTLAHIRLKPEERALYKNLPVIFNIEKGFFFEPDEERGEIKICDEHPGYTNMVKSADGHLTSLPFEKTQIPKESEARVRALLSETMPQLADRPFSFARVCWCADTANREFIIDRHPEHPSLVLGCGASGRGFKYLPSIGNLIVDAIEDKVPEKVHKLTRWSPDIAVDRKWRDTLGRFGGPNRVMDFHDVKEWTNVQNKDTAKL

Target: T1, α-fructosyl-valyl-histidyl-leucyl-threonyl-proryl-glutamic acid
T1 chain: VHLTPE
Details: for αF6P oxidation activity: scale: relative value

Row | Protein | αF6P oxidation activity ratio (relative value (CFP-T7-H6 = 100)) | αF6P oxidation activity | also measured
1 | B1 | – | – | αF6P oxidation activity ratio (relative value (CFP-T7-H2 = 100)): 120
2 | B2 | – | – | αF6P oxidation activity ratio (relative value (CFP-T7-H20 = 100)): 7
3 | B3 | – | – | Specific activity (U/mg), 1 mM αF6P: 4.65 U/mg
4 | B4 | 100 | 3 | αF6P oxidation activity ratio (relative value (CFP-T7-H2 = 100)): 513
5 | B5 | – | 111 | αF6P oxidation activity ratio (relative value (CFP-T7-H26 = 100)): 102
6 | B6 | – | 84.3 | αF6P oxidation activity ratio (relative value (CFP-T7-H20 = 100)): 142; αF6P oxidation activity ratio (relative value (CFP-T7-H26 = 100)): 100
7 | B7 | 301 | – | –
8 | B8 | – | 134 | αF6P oxidation activity ratio (relative value (CFP-T7-H26 = 100)): 117; αF6P oxidation activity ratio (relative value (CFP-T7-H28 = 100)): 100
9 | B9 | – | – | αF6P oxidation activity ratio (relative value (CFP-T7-H2 = 100)): 11
10 | B10 | – | – | αF6P oxidation activity ratio (relative value (CFP-T7-H2 = 100)): 21
11 | B11 | – | 0.0735 | αF6P oxidation activity ratio (relative value (CFP-T7-H2 = 100)): 100
12 | B12 | – | – | αF6P oxidation activity ratio (relative value (CFP-T7-H20 = 100)): 24
13 | B13 | 2 | – | –
14 | B14 | 951 | 12.5 | –
15 | B15 | 183 | 4.22 | –
16 | B16 | 44 | – | –
17 | B17 | 17 | – | –
18 | B18 | – | 86.7 | αF6P oxidation activity ratio (relative value (CFP-T7-H20 = 100)): 123
19 | B19 | 207 | 4.33 | –
20 | B20 | – | – | Specific activity (U/mg), 1 mM αF6P: 7.19 U/mg
21 | B21 | 636 | 11.6 | –
22 | B22 | – | – | Specific activity (U/mg), 1 mM αF6P: 0.0091 U/mg
23 | B23 | – | – | Specific activity (U/mg), 1 mM αF6P: 0.0022 U/mg
